Experimental data reported in publication PMC3553496 (Science signaling, 2011).

Key:
Experiment in all cases: peptide or protein array
[1] = target: T1, Cathepsin B peptide (18-mer) (human)
T1 peptide: CGTFLGGPKPPQRVMFTE

[2] = target: T2, Chromodomain helicase-DNA binding protein 3 peptide (18-mer) (human)
T2 peptide: YLNLSQEPAHPAMALHAR

[3] = target: T3, Protein FAM134C peptide (18-mer) (human)
T3 peptide: ALVEVLGPYEPLLSRVQA

[4] = target: T4, Calpain-2 catalytic subunit peptide (18-mer) (human)
T4 peptide: AGTLFQDPSFPAIPSALG

[5] = target: T5, Serotransferrin peptide (18-mer) (human)
T5 peptide: NLREGTCPEAPTDECKPV

[6] = target: T6, Eukaryotic translation initiation factor 2-a kinase 3 peptide (18-mer) (human)
T6 peptide: VRISEKFPSSPKALESVT

[7] = target: T7, CDK5 and ABL1 enzyme substrate 1 peptide (18-mer) (human)
T7 peptide: GCIALAAPGTPAAGLAAG

[8] = target: T8, SRA stem-loop–interacting RNA binding protein, mitochondrial peptide (18-mer) (human)
T8 peptide: VQVHTRRPKLPQTSDDEK

Vigilin peptide (18-mer) = target: T9, Vigilin peptide (18-mer) (human)
T9 peptide: PTYKDAFPPLPEKAACLE

[9] = target: T10, Paxillin-associated protein with ARF GAP activity 3 peptide (18-mer) (human)
T10 peptide: GISQIRPPPLPPQPPSRL

[10] = target: T11, Dynein heavy chain 6 peptide (18-mer) (human)
T11 peptide: EKERPPKPEAPWLPTATW

[11] = target: T12, Large proline-rich protein BAT3 peptide (18-mer) (human)
T12 peptide: QTLGQQVPGFPTAPTRVV

[12] = target: T13, Protein Shroom 3 peptide (18-mer) (human)
T13 peptide: ASDSGRGPQRPDARLLRS

Row | Binder | relative binding strength (% of the strongest interaction of this SH3 domain) [1] | relative binding strength (% of the strongest interaction of this SH3 domain) [2] | relative binding strength (% of the strongest interaction of this SH3 domain) [3] | relative binding strength (% of the strongest interaction of this SH3 domain) [4] | relative binding strength (% of the strongest interaction of this SH3 domain) [5] | relative binding strength (% of the strongest interaction of this SH3 domain) [6] | relative binding strength (% of the strongest interaction of this SH3 domain) [7] | relative binding strength (% of the strongest interaction of this SH3 domain) [8] | relative binding strength (% of the strongest interaction of this SH3 domain) (Vigilin peptide (18-mer)) | relative binding strength (% of the strongest interaction of this SH3 domain) [9] | relative binding strength (% of the strongest interaction of this SH3 domain) [10] | relative binding strength (% of the strongest interaction of this SH3 domain) [11] | relative binding strength (% of the strongest interaction of this SH3 domain) [12]
1 | GST-tagged RICS SH3 domain (domain or fragment, human, UniProt A7KAX9 262-320, looked up) GAAHVIKRYTARAPDELTLEVGDIVSVIDMPPKVLSTWWRGKHGFQVGLFPGHCVELIN | 100% | 88% | 85% | 49% | 49% | 15% | 7% | 7% | 5% | – | – | – | –
2 | GST-tagged ARHGAP10 SH3 domain (domain or fragment, human, UniProt A1A4S6 731-786, looked up) RKARAVYPCEAEHSSELSFEIGAIFEDVQTSREPGWLEGTLNGKRGLIPQNYVKLL | – | – | – | – | – | – | – | – | – | 100% | 95% | 58% | 37%
